# From US20120129766A1 (IRM, published 2012)
# Where a chain is given by its changes, count along the chain named. Names and notes keep the numbering of the source.
# T1: human β-klotho (human, UniProt Q86Z14 1-1044)
# T1 sequence (looked up): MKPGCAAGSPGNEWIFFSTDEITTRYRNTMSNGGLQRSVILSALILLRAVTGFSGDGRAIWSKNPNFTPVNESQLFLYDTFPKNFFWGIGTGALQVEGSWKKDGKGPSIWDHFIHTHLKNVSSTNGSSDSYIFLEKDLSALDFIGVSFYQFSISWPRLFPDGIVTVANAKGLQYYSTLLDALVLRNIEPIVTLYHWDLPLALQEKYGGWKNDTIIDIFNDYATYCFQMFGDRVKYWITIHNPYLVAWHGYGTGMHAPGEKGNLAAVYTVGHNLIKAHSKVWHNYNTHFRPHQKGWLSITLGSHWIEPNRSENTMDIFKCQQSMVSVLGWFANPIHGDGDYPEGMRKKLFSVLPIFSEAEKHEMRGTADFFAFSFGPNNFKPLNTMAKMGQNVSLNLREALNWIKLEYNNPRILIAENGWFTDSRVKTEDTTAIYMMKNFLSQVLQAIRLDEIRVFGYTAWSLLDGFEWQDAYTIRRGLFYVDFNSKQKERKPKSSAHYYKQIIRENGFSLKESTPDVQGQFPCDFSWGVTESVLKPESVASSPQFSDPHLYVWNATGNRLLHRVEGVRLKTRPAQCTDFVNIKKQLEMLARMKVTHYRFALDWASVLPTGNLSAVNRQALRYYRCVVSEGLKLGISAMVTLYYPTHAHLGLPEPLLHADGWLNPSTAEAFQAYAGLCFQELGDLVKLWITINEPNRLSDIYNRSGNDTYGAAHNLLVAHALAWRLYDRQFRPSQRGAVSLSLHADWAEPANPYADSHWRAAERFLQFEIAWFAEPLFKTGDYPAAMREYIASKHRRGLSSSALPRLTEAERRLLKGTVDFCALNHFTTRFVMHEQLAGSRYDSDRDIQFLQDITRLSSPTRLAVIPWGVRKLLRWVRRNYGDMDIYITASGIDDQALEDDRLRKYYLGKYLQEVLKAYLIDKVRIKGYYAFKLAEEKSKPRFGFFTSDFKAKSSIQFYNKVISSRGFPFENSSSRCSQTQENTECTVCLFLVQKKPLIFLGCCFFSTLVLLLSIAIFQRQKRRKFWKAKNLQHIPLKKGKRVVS
# B1: hFGF21(33-209)-V5 (ligand)
# chain: DSSPLLQFGGQVRQRYLYTDDDQQTEAHLEIREDGTVGGAAHQSPESLLQLKALKPGVIQILGVKASRFLCQKPDGALYGSLHFDPEACSFRELLLENGYNVYQSEAHGLPLHLPGNRSPHRDPASQGPARFLPLPGLPPALPEPPGILAPQPPDVGSSDPLAMVGPSQARSPSYAS
# B2: hFGF21(33-209)-V81 (ligand)
# chain: B1 chain with D22A, Q50E, A66T, N98D, R122C, A170G
# B3: hFGF21(33-209)-V8 (ligand)
# chain: B1 chain with D22A, Q24E, K65Q, A66T, A107T, R118K
# B4: hFGF21(33-209)-V76 (ligand)
# chain: B1 chain with D22A, Q24E, Q50E, A66T, N98D, R122C, S126P, A170G
# B5: hFGF21(33-209)-V15 (ligand)
# chain: B1 chain with D22A, Q24E, K65Q, A66T, S126P, A170G
# B6: hFGF21(33-209)-V18 (ligand)
# chain: B1 chain with D22A, A27S, K65Q, A66T, S126P, A170G
# B7: hFGF21(33-209)-V57 (ligand)
# chain: B1 chain with D22A, K73R, A107T, L142P
# B8: hFGF21(33-209)-V14pool 1-N-40 kDa bPEG-AL (ligand)
# chain: B1 chain with D22A, Q24E, Q50E, A66T, S126P, A170G
# modifications: 40 kDa branched PEG (aldehyde reagent) on the N-terminal amine
# B9: hFGF21(33-209)-V14-R154C, L174P (ligand)
# chain: B1 chain with D22A, Q24E, Q50E, A66T, R122C, S126P, L142P, A170G
# B10: hFGF21(33-209)-V9 (ligand)
# chain: B1 chain with A107T, R118K
# B11: hFGF21(33-209)-V79 (ligand)
# chain: B1 chain with D22A, Q50E, A66T, N98D, R122C, S126P
# B12: hFGF21(33-209)-V7 (ligand)
# chain: B1 chain with D22A, Q24E
# B13: hFGF21(33-209)-V80 (ligand)
# chain: B1 chain with D22A, H42D, Q50E, A66T, A77T, N98D, R122C, S126P
# B14: hFGF21(33-209)-V59 (ligand)
# chain: B1 chain with D22A, Q23C, Q50E, A66T, K73R, G116C, L142P, A170G
# B15: hFGF21(33-209)-V16 (ligand)
# chain: B1 chain with D22A, Q24E, S126P, A170G
# B16: hFGF21(33-209)-V82 (ligand)
# chain: B1 chain with D22A, H42D, Q50E, A66T, A77T, N98D, R122C, A170G
# B17: hFGF21(33-209)-V73-N-40 kDa bPEG-AL (ligand)
# chain: B1 chain with D22A, Q24E, Q50E, A66T, N98E, S126P, A170G
# modifications: 40 kDa branched PEG (aldehyde reagent) on the N-terminal amine
# B18: hFGF21(33-209)-V76-154C-40 kDa-bPEG-MA (ligand)
# chain: B1 chain with D22A, Q24E, Q50E, A66T, N98D, R122C, S126P, A170G
# modifications: 40 kDa branched maleimido-PEG on Cys 154 (numbered on SEQ ID NO:1)
# B19: hFGF21(33-209)-V12 (ligand)
# chain: B1 chain with K65Q, A66T, S126P, A170G
# B20: hFGF21(33-209)-V14-pool1 (ligand)
# chain: B1 chain with D22A, Q24E, Q50E, A66T, S126P, A170G
# B21: hFGF21(33-209)-V58 (ligand)
# chain: B1 chain with D22A, A66T, K73R, A77T, A107T, L142P
# B22: hFGF21(33-209)-V52 (ligand)
# chain: B1 chain with L6V, D22A, A66T, G109S, R118K, A163S
# B23: hFGF21(33-209)-V64 (ligand)
# chain: B1 chain with D22A, Q23C, H42D, A66T, K73R, A77T, A107T, G116C, Q127R, L142P
# B24: hFGF21(33-209)-V53 (ligand)
# chain: B1 chain with D22A, Q24E, Q50E, A66T, L142P, A170G
# B25: hFGF21(33-209)-V55 (ligand)
# chain: B1 chain with D22A, V37A, Q50E, A66T, L142P, A170G
# B26: hFGF21(33-209)-V10 (ligand)
# chain: B1 chain with D22A, Q24E, A107T, R118K
# B27: hFGF21(33-209)-V14-L174P, R154C-40 kDa bPEG-MA (ligand)
# chain: B1 chain with D22A, Q24E, Q50E, A66T, R122C, S126P, L142P, A170G
# modifications: 40 kDa branched maleimido-PEG on Cys 154 (numbered on SEQ ID NO:1)
# B28: hFGF21(33-209)-V11 (ligand)
# chain: B1 chain with Q50E, A66T, S126P, A170G
# B29: hFGF21(33-209)-V62 (ligand)
# chain: B1 chain with D22A, Q23C, A66T, K73R, A107T, G116C, R118K, L142P
# B30: hFGF21(33-209)-V14-pool2 (ligand)
# chain: B1 chain with D22A, Q24E, Q50E, A66T, N98D, S126P, A170G
# B31: hFGF21(33-209)-V13 (ligand)
# chain: B1 chain with S126P, A170G
# B32: hFGF21(33-209)-V56 (ligand)
# chain: B1 chain with D22A, A107T, R118K, L142P
# B33: hFGF21(33-209)-V63 (ligand)
# chain: B1 chain with D22A, Q23C, A66T, K73R, A107T, G116C, Q127R, L142P
# B34: hFGF21(33-209)-V60 (ligand)
# chain: B1 chain with D22A, Q23C, Q50E, A66T, K73R, A77T, G116C, Q127R, L142P, A170G
# B35: hFGF21(33-209)-V73 (ligand)
# chain: B1 chain with D22A, Q24E, Q50E, A66T, N98E, S126P, A170G
# B36: hFGF21(33-209)-V61 (ligand)
# chain: B1 chain with D22A, Q23C, V37A, Q50E, A66T, K73R, G116C, Q127R, L142P, A170G
# B37: hFGF21(33-209)-V54 (ligand)
# chain: B1 chain with D22A, Q50E, A66T, A77T, L142P, A170G
# Target: T1, human β-klotho
# Experiment: cell-based or functional assay
"EC50 (nM), pERK In Cell Western [nM]",Fold-WT (EC50 of variant / EC50 of FGF21-WT) [fold],Binder
26,9.3,B1
11,2.1,B2
14,5,B3
3.4,0.47,B4
3.3,1.2,B5
15,2.7,B6
22,5.4,B7
107,22,B8
6.7,1,B9
13,2.4,B10
2.2,0.4,B11
19,6.8,B12
2.2,0.4,B13
6.5,1.6,B14
11,6.5,B15
1.5,2.7,B16
191,66,B17
8.3,2.4,B18
14,5,B19

"EC50 (nM), pERK In Cell Western [nM]",Fold-WT (EC50 of variant / EC50 of FGF21-WT) [fold],Binder
6.7,1.4,B20
3.6,2.6,B21
66,94,B22
2.9,0.8,B23
4.2,1.3,B24
34,13,B25
18,3.3,B26
21,3.3,B27
28,18,B28
24,6.8,B29
5.3,1.4,B30
11,4,B31
37,14,B32
13,3.7,B33
7.6,2.2,B34
5.8,1.7,B35
22,6.3,B36
25,9.2,B37
